Reference: patent EP4714975A1 (Nanjing Leads Biolabs Co., Ltd., dated 2026)

Legend:
[1] = biological target: T1, human LILRB4 endogenously expressed on tumor cells (MV-4-11, HL-60) (human, UniProt Q8NHJ6 22-448); assay: flow cytometry on MV-4-11 cells
T1 construct: whole, on cells; also called tumor cells (MV-411) expressing human LILRB4; HL-60 cells that endogenously express human LILRB4

[2] = biological target: T2, human LILRB4 expressed on CHO-K1 cells (CHO-K1-huLILRB4) (human, UniProt Q8NHJ6 22-280); assay: flow cytometry on CHO-K1-huLILRB4 cells
T2 construct: also called engineered cells expressing human LILRB4

[3] = biological target: T3, cynomolgus monkey LILRB4 protein (ACRO Biosystems, Cat. No.: CDK-C5227) (cynomolgus monkey); assay: BLI (ForteBio Octet RED96e), antibody captured on AHC sensor, antigen in solution, 1:1 model
T3 construct: Bought reagent

[4] = biological target: T4, cynomolgus monkey CD3 protein (ACRO Biosystems, Cat. No.: CDD-C52W4) (cynomolgus monkey, UniProt Q95LI5 22-117); assay: as above
T4 sequence (looked up): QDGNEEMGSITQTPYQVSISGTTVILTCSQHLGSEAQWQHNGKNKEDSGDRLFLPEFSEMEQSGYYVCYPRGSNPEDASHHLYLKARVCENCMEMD

[5] = biological target: human CD3 protein (Sino Biological, Cat. No.: CT038-H2508H) (human, UniProt P07766 23-126); assay: as above
human CD3 protein (Sino Biological, Cat. No.: CT038-H2508H), sequence (P07766 23-126): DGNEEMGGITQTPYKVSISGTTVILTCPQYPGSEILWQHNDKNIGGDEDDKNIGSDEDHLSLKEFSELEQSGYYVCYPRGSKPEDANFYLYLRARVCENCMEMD

B1: h193 (a fully human monoclonal antibody against LILRB4) (antibody, human IgG1, kappa, V domains shown)
VH: EVQLVESGGGLVQPGGSLRLSCAASGFSLSSSYWISWVRQAPGKGLEWIGSIDSGSVGITYYATWVKGRFTISRDNSKNTLYLQMNSLRAEDTAVYYCARHGDNWALDLWGQGTLVTVSS
VL: DLVMTQSPSTLSASVGDRVTITCQASQSINSWLAWYQQKPGKPPKLLIYKASTLASGVSSRFSGSGSGTEFTLTISSLQPDDVATYYCQHGYIRGDLDNVFGGGTKVEIKR
notes: Control antibody; also called antibody h193; control antibody h193
B1: binds [1]; binds [2].

B2: anti-LILRB4 chimeric antibody B1A2 (antibody, human IgG1, V domains shown)
VH: QVQLVESGGGLVQPGGSLRLSCAASGFTFSSYTMSWVRQAPGKGLEWISDINNDGGKTYYAFSVEGRFTISRDNAKNTLYLQMNSLKPEDTAVYYCVRDHQYTSRNGDRGQGTQVTVSS
notes: also called Camelid-derived anti-LILRB4 VHH B1A2-Fc
B2: binds [2].

B3: anti-LILRB4 chimeric antibody 1H12 (antibody, human IgG1, V domains shown)
VH: EVQVVESGGGLVQAGGSLRLSCAASETIFSSNVMGWYRQAHGKQRELVAATGINGVTKYADSVKGRFTISRDNAKNTVYLQMNSLNVEDTAVYYCAAGVWRNFVMRSPDYWGQGTQVTVSS
notes: also called Camelid-derived anti-LILRB4 VHH 1H12-Fc
B3: binds [2].

B4: anti-LILRB4 chimeric antibody 2A3 (antibody, human IgG1, V domains shown)
VH: EVQVVESGGGSVQTGGSLTLSCAASGRTFRSNGMGWFRQAPGKEREFVAAIRWSGRRTTYTDSVKGRFTISSDSAKNTVYLQMSSLKPEDTAVYYCAVDLLPPYGALDKYDYWGQGTQVTVSS
notes: also called Camelid-derived anti-LILRB4 VHH 2A3-Fc
B4: binds [2].

B5: anti-LILRB4xCD3 bispecific antibody huB1G5-CD3Fab (bispecific antibody, human IgG1, lambda, L234A L235A)
heavy 1: not shown
light: QAVVTQEPSLTVSPGGTVTLTCRSSTGAVTTSNYANWVQQKPGQAPRGLIGGTNKRAPGVPARFSGSLLGGKAALTLSGAQPEDEAEYFCALWYSNLWVFGGGTKLTVLGQPKAAPSVTLFPPSSEELQANKATLVCLISDFYPGAVTVAWKADSSPVKAGVETTTPSKQSNNKYAASSYLSLTPEQWKSHRSYSCQVTHEGSTVEKTVAPTEC
heavy 2: EVQLVESGGGLVQPGGSLRLSCAASESIFSSNVMGWYRQAPGKQRELVAAVGIQGLTKIGDSVKGRFTISRDNAKNSVYLQMNSLRAEDTAVYYCAAGAYVRFLQQSPDYWGQGTQVTVSSEPKSSDKTHTCPPCPAPEAAGGPSVFLFPPKPKDTLMISRTPEVTCVVVAVSHEDPEVKFNWYVDGVEVHNAKTKPREEQYNSTYRVVSVLTVLHQDWLNGKEYKCKVSNKALAAPIEKTISKAKGQPREPQVCTLPPSRDELTKNQVSLSCAVKGFYPSDIAVEWESNGQPENNYKTTPPVLDSDGSFFLVSKLTVDKSRWQQGNVFSCSVMHEALHNHYTQKSLSLSPGK
notes: HC1: CD3Fab heavy chain-knob; LC1: CD3Fab light chain; HC2: huB1G5-hole (VHH huB1G5-3 and Fc hole); One anti-LILRB4 VHH, one anti-CD3 Fab, knob-in-hole Fc
Binder B5 has a Kd [3] of 11 nM, a koff [3] of 0.00351 s⁻¹ and a kon [3] of 320000 M⁻¹ s⁻¹. For the same binder, the Kd [4] was 6.59 nM, the koff [4] was 0.0021 s⁻¹ and the kon [4] was 318000 M⁻¹ s⁻¹. For the same binder, the Kd [5] was 26.3 nM, the koff [5] was 0.00803 s⁻¹ and the kon [5] was 305000 M⁻¹ s⁻¹.

B6: anti-LILRB4xCD3 bispecific antibody huB1G5-CD3-2VHH (bispecific antibody, human IgG1, lambda, L234A L235A)
heavy 1: not shown
light: QAVVTQEPSLTVSPGGTVTLTCRSSTGAVTTSNYANWVQQKPGQAPRGLIGGTNKRAPGVPARFSGSLLGGKAALTLSGAQPEDEAEYFCALWYSNLWVFGGGTKLTVLGQPKAAPSVTLFPPSSEELQANKATLVCLISDFYPGAVTVAWKADSSPVKAGVETTTPSKQSNNKYAASSYLSLTPEQWKSHRSYSCQVTHEGSTVEKTVAPTEC
heavy 2: EVQLVESGGGLVQPGGSLRLSCAASESIFSSNVMGWYRQAPGKQRELVAAVGIQGLTKIGDSVKGRFTISRDNAKNSVYLQMNSLRAEDTAVYYCAAGAYVRFLQQSPDYWGQGTQVTVSSEPKSSDKTHTCPPCPAPEAAGGPSVFLFPPKPKDTLMISRTPEVTCVVVAVSHEDPEVKFNWYVDGVEVHNAKTKPREEQYNSTYRVVSVLTVLHQDWLNGKEYKCKVSNKALAAPIEKTISKAKGQPREPQVCTLPPSRDELTKNQVSLSCAVKGFYPSDIAVEWESNGQPENNYKTTPPVLDSDGSFFLVSKLTVDKSRWQQGNVFSCSVMHEALHNHYTQKSLSLSPGK
notes: HC1: huB1G5-CD3Fab heavy chain-knob (VHH, GGGGS, hu34H1-VH, CH1, Fc knob); LC1: CD3Fab light chain; HC2: huB1G5-hole; Two anti-LILRB4 VHHs, one anti-CD3 Fab
B6 was tested, and the Kd [3] was 10.6 nM, the koff [3] was 0.0023 s⁻¹ and the kon [3] was 218000 M⁻¹ s⁻¹. For the same binder, the Kd [4] was 6.92 nM, the koff [4] was 0.00191 s⁻¹ and the kon [4] was 276000 M⁻¹ s⁻¹. It also gave a Kd [5] of 22.6 nM, a koff [5] of 0.00549 s⁻¹ and a kon [5] of 242000 M⁻¹ s⁻¹.

B7: anti-LILRB4xCD3 bispecific antibody huB1G5-ScFv-2VHH (bispecific antibody)
heavy 1: not shown
heavy 2: EVQLVESGGGLVQPGGSLRLSCAASESIFSSNVMGWYRQAPGKQRELVAAVGIQGLTKIGDSVKGRFTISRDNAKNSVYLQMNSLRAEDTAVYYCAAGAYVRFLQQSPDYWGQGTQVTVSSEPKSSDKTHTCPPCPAPEAAGGPSVFLFPPKPKDTLMISRTPEVTCVVVAVSHEDPEVKFNWYVDGVEVHNAKTKPREEQYNSTYRVVSVLTVLHQDWLNGKEYKCKVSNKALAAPIEKTISKAKGQPREPQVCTLPPSRDELTKNQVSLSCAVKGFYPSDIAVEWESNGQPENNYKTTPPVLDSDGSFFLVSKLTVDKSRWQQGNVFSCSVMHEALHNHYTQKSLSLSPGK
notes: HC1: huB1G5-Hu34ScFv-knob (VHH, GGGGS, 23L2 ScFv, Fc knob); HC2: huB1G5-hole
Work on B7 yielded a Kd [3] of 15.3 nM, a koff [3] of 0.00365 s⁻¹ and a kon [3] of 238000 M⁻¹ s⁻¹. For the same binder, the Kd [4] was 28.2 nM, the koff [4] was 0.00801 s⁻¹ and the kon [4] was 284000 M⁻¹ s⁻¹. The Kd [5] was 35.7 nM, the koff [5] was 0.0112 s⁻¹ and the kon [5] was 313000 M⁻¹ s⁻¹.

B8: humanized anti-LILRB4 antibody huB1G5-1 (antibody, V domains shown)
VH: EVQLVESGGGLVQPGGSLRLSCAASESIFSSNVMGWYRQAPGKQRELVAAVGINGLTKIGDSVKGRFTISRDNAKNSVYLQMNSLRAEDTAVYYCAAGAYVRFLQNSPDYWGQGTQVTVSS
notes: Humanized VHH-Fc heavy-chain antibody without light chain; also called Humanized anti-LILRB4 VHH huB1G5-1-Fc
B8: binds [1].

B9: anti-LILRB4 chimeric antibody B1G5 (antibody, human IgG1, V domains shown)
VH: EVQLVESGGGLVQAGGSLRLSCAASESIFSSNVMGWYRQSPGHQRELVAAVGINGLTKIGDSVKGRFTISRDNAKNTVYLQMNSLKVEDTAVYYCAAGAYVRFLQNSPDYWGQGTQVTVSS
notes: also called Camelid-derived anti-LILRB4 VHH B1G5-Fc
B9: binds [2].

B10: humanized anti-LILRB4 antibody huB1G5-3 (antibody, V domains shown)
VH: EVQLVESGGGLVQPGGSLRLSCAASESIFSSNVMGWYRQAPGKQRELVAAVGIQGLTKIGDSVKGRFTISRDNAKNSVYLQMNSLRAEDTAVYYCAAGAYVRFLQQSPDYWGQGTQVTVSS
notes: Humanized VHH-Fc heavy-chain antibody without light chain; also called Humanized anti-LILRB4 VHH huB1G5-3-Fc
B10: binds [1].
